Reference: patent US20230079439A1 (University of California, published 2023)
Numbered stars: 1 amine (or outer) side, 2 acyl side, 3 side chain; on linkers, the order of the positions; unused ones are H or OH. Suc = O=C(CCC(=O)[*:2])[*:1]

Target: neurexins (NXs) located on the plasma membrane of INS-1E cells (rat)
Assay: cell-based or functional assay

EC50 of the increase of GSIS in INS-1E cells: 32 µM
Binder: {PEG2000-Suc}-QQGEFLNYD-NH2 (also: dimer of two HSA-28 monomers bridged via PEG2000)
